According to patent US20200317768A1 (published 2020):

T1: cynomolgus monkey FcγRIIa2 extracellular domain, C-terminal His-tag (cynomolgus monkey)
T1 construct: also called cyno FcγRIIa2; cynoFcgRIIa2; not shown: His-tag added to C-terminus
T1 chain: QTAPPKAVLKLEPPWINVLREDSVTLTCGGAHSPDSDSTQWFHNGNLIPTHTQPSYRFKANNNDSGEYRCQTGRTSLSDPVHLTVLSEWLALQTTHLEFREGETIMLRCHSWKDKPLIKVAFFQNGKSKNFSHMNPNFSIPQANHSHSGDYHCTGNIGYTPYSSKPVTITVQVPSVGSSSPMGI

T2: cynomolgus monkey FcγRIIa3 extracellular domain, C-terminal His-tag (cynomolgus monkey)
T2 construct: also called cyno FcγRIIa3; cynoFcgRIIa3; not shown: His-tag added to C-terminus
T2 chain: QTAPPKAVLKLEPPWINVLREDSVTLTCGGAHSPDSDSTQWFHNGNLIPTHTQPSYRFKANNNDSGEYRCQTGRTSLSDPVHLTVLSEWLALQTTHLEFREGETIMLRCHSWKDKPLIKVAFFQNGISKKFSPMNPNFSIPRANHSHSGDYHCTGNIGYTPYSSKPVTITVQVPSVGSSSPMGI


What was measured:
Experiment in all cases: SPR (BIACORE); KD of SG1 / KD of variant
[1] = target: T3, human FcγRIIIaV extracellular domain, C-terminal His-tag (human, UniProt P08637 17-208)
T3 construct: also called FcgRIIIaV; not shown: His-tag added to C-terminus

[2] = target: T1, cynomolgus monkey FcγRIIa2 …
[3] = target: T2, cynomolgus monkey FcγRIIa3 …

T3 sequence (P08637 17-208 F176V): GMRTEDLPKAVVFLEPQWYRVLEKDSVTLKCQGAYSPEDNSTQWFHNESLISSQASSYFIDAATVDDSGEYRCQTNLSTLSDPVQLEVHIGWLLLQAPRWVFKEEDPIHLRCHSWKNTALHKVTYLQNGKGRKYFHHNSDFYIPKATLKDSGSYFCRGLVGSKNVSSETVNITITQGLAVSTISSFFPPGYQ

Binder	KD fold (SG1 = 1) [1] [fold]	KD fold (SG1 = 1) [2] [fold]	KD fold (SG1 = 1) [3] [fold]
MS_M103205H795-SG1/M103202L889-SK1 (antibody, human IgG1, kappa, Parent antibody with SG1 human heavy chain constant region; also called MS1032LO06-SG1) heavy: not shown light: DIVMTQSPATLSLSPGERATLSCTSSQSVYHANWLSWFQQKPGQPPKLLIYWASTLAYGVPSRFSGSGSGTDFTLTISSLQPEDAATYYCAGGYGGGRYAFGQGTKVEIKRTVAAPSVFIFPPSDEQLKSGTASVVCLLNNFYPREAKVQWKVDNALQSGNSQESVTEQDSKDSTYSLSSTLTLSKADYEKHKVYACEVTHQGLSSPVTKSFNRGEC	1	1	1
M103205H795-MY101 / M103202L889-SK1 (antibody, human IgG1, kappa, CH with G236N/H268E/A330K/P396M against SG1 (EU numbering); also called MS1032LO06-MY101) heavy: QVTLKESGPVLVKPTETLTLTCTVSGIDLSHDDISWVRQAPGKGLEWVGIISYAGSTYYASWAKGRLTISKDTSKNQVVLTMTNMDPVDTATYYCARGVPAYSHGGDLWGQGTLVTVSSASTKGPSVFPLAPSSKSTSGGTAALGCLVKDYFPEPVTVSWNSGALTSGVHTFPAVLQSSGLYSLSSVVTVPSSSLGTQTYICNVNHKPSNTKVDKKVEPKSCDKTHTCPPCPAPELLNGPSVFLFPPKPKDTLMISRTPEVTCVVVDVSEEDPEVKFNWYVDGVEVHNAKTKPREEQYNSTYRVVSVLTVLHQDWLNGKEYKCKVSNKALPKPIEKTISKAKGQPREPQVYTLPPSREEMTKNQVSLTCLVKGFYPSDIAVEWESNGQPENNYKTTPMVLDSDGSFFLYSKLTVDKSRWQQGNVFSCSVMHEALHNHYTQKSLSLSP light: DIVMTQSPATLSLSPGERATLSCTSSQSVYHANWLSWFQQKPGQPPKLLIYWASTLAYGVPSRFSGSGSGTDFTLTISSLQPEDAATYYCAGGYGGGRYAFGQGTKVEIKRTVAAPSVFIFPPSDEQLKSGTASVVCLLNNFYPREAKVQWKVDNALQSGNSQESVTEQDSKDSTYSLSSTLTLSKADYEKHKVYACEVTHQGLSSPVTKSFNRGEC	0.07	4.3	4.7
M103205H795-MY351 / M103202L889-SK1 (antibody, human IgG1, kappa, CH with G236N/H268D/Q311R/A330K/D413K against SG1 (EU numbering); also called MS1032LO06-MY351) heavy: QVTLKESGPVLVKPTETLTLTCTVSGIDLSHDDISWVRQAPGKGLEWVGIISYAGSTYYASWAKGRLTISKDTSKNQVVLTMTNMDPVDTATYYCARGVPAYSHGGDLWGQGTLVTVSSASTKGPSVFPLAPSSKSTSGGTAALGCLVKDYFPEPVTVSWNSGALTSGVHTFPAVLQSSGLYSLSSVVTVPSSSLGTQTYICNVNHKPSNTKVDKKVEPKSCDKTHTCPPCPAPELLNGPSVFLFPPKPKDTLMISRTPEVTCVVVDVSDEDPEVKFNWYVDGVEVHNAKTKPREEQYNSTYRVVSVLTVLHRDWLNGKEYKCKVSNKALPKPIEKTISKAKGQPREPQVYTLPPSREEMTKNQVSLTCLVKGFYPSDIAVEWESNGQPENNYKTTPPVLDSDGSFFLYSKLTVKKSRWQQGNVFSCSVMHEALHNHYTQKSLSLSP light: DIVMTQSPATLSLSPGERATLSCTSSQSVYHANWLSWFQQKPGQPPKLLIYWASTLAYGVPSRFSGSGSGTDFTLTISSLQPEDAATYYCAGGYGGGRYAFGQGTKVEIKRTVAAPSVFIFPPSDEQLKSGTASVVCLLNNFYPREAKVQWKVDNALQSGNSQESVTEQDSKDSTYSLSSTLTLSKADYEKHKVYACEVTHQGLSSPVTKSFNRGEC	0.06	6.7	8.9
M103205H795-MY205 / M103202L889-SK1 (antibody, human IgG1, kappa, CH with G236N/H268D/Q295L/A330K against SG1 (EU numbering); also called MS1032LO06-MY205) heavy: QVTLKESGPVLVKPTETLTLTCTVSGIDLSHDDISWVRQAPGKGLEWVGIISYAGSTYYASWAKGRLTISKDTSKNQVVLTMTNMDPVDTATYYCARGVPAYSHGGDLWGQGTLVTVSSASTKGPSVFPLAPSSKSTSGGTAALGCLVKDYFPEPVTVSWNSGALTSGVHTFPAVLQSSGLYSLSSVVTVPSSSLGTQTYICNVNHKPSNTKVDKKVEPKSCDKTHTCPPCPAPELLNGPSVFLFPPKPKDTLMISRTPEVTCVVVDVSDEDPEVKFNWYVDGVEVHNAKTKPREELYNSTYRVVSVLTVLHQDWLNGKEYKCKVSNKALPKPIEKTISKAKGQPREPQVYTLPPSREEMTKNQVSLTCLVKGFYPSDIAVEWESNGQPENNYKTTPPVLDSDGSFFLYSKLTVDKSRWQQGNVFSCSVMHEALHNHYTQKSLSLSP light: DIVMTQSPATLSLSPGERATLSCTSSQSVYHANWLSWFQQKPGQPPKLLIYWASTLAYGVPSRFSGSGSGTDFTLTISSLQPEDAATYYCAGGYGGGRYAFGQGTKVEIKRTVAAPSVFIFPPSDEQLKSGTASVVCLLNNFYPREAKVQWKVDNALQSGNSQESVTEQDSKDSTYSLSSTLTLSKADYEKHKVYACEVTHQGLSSPVTKSFNRGEC	0.06	4.6	5.7
M103205H795-PK2 / M103202L889-SK1 (antibody, human IgG1, kappa, CH with G236N/H268E/A330K/P396M/S400R/D413K against SG1 (EU numbering); also called MS1032LO06-PK2; MS103205H795-PK2) heavy: QVTLKESGPVLVKPTETLTLTCTVSGIDLSHDDISWVRQAPGKGLEWVGIISYAGSTYYASWAKGRLTISKDTSKNQVVLTMTNMDPVDTATYYCARGVPAYSHGGDLWGQGTLVTVSSASTKGPSVFPLAPSSKSTSGGTAALGCLVKDYFPEPVTVSWNSGALTSGVHTFPAVLQSSGLYSLSSVVTVPSSSLGTQTYICNVNHKPSNTKVDKKVEPKSCDKTHTCPPCPAPELLNGPSVFLFPPKPKDTLMISRTPEVTCVVVDVSEEDPEVKFNWYVDGVEVHNAKTKPREEQYNSTYRVVSVLTVLHQDWLNGKEYKCKVSNKALPKPIEKTISKAKGQPREPQVYTLPPSREEMTKNQVSLTCLVKGFYPSDIAVEWESNGQPENNYKTTPMVLDRDGSFFLYSKLTVKKSRWQQGNVFSCSVMHEALHNHYTQKSLSLSP light: DIVMTQSPATLSLSPGERATLSCTSSQSVYHANWLSWFQQKPGQPPKLLIYWASTLAYGVPSRFSGSGSGTDFTLTISSLQPEDAATYYCAGGYGGGRYAFGQGTKVEIKRTVAAPSVFIFPPSDEQLKSGTASVVCLLNNFYPREAKVQWKVDNALQSGNSQESVTEQDSKDSTYSLSSTLTLSKADYEKHKVYACEVTHQGLSSPVTKSFNRGEC	0.06	3.9	4.5

More lines, now with the values ahead:

KD fold (SG1 = 1) [1] [fold]	KD fold (SG1 = 1) [2] [fold]	KD fold (SG1 = 1) [3] [fold]	Binder
0.16	3	6.3	M103205H795-MY335 / M103202L889-SK1 (antibody, human IgG1, kappa, CH with G236T/H268D/Q311R/A330K/D413K against SG1 (EU numbering); also called MS1032LO06-MY335) heavy: QVTLKESGPVLVKPTETLTLTCTVSGIDLSHDDISWVRQAPGKGLEWVGIISYAGSTYYASWAKGRLTISKDTSKNQVVLTMTNMDPVDTATYYCARGVPAYSHGGDLWGQGTLVTVSSASTKGPSVFPLAPSSKSTSGGTAALGCLVKDYFPEPVTVSWNSGALTSGVHTFPAVLQSSGLYSLSSVVTVPSSSLGTQTYICNVNHKPSNTKVDKKVEPKSCDKTHTCPPCPAPELLTGPSVFLFPPKPKDTLMISRTPEVTCVVVDVSDEDPEVKFNWYVDGVEVHNAKTKPREEQYNSTYRVVSVLTVLHRDWLNGKEYKCKVSNKALPKPIEKTISKAKGQPREPQVYTLPPSREEMTKNQVSLTCLVKGFYPSDIAVEWESNGQPENNYKTTPPVLDSDGSFFLYSKLTVKKSRWQQGNVFSCSVMHEALHNHYTQKSLSLSP light: DIVMTQSPATLSLSPGERATLSCTSSQSVYHANWLSWFQQKPGQPPKLLIYWASTLAYGVPSRFSGSGSGTDFTLTISSLQPEDAATYYCAGGYGGGRYAFGQGTKVEIKRTVAAPSVFIFPPSDEQLKSGTASVVCLLNNFYPREAKVQWKVDNALQSGNSQESVTEQDSKDSTYSLSSTLTLSKADYEKHKVYACEVTHQGLSSPVTKSFNRGEC
0.04	4.6	7.7	M103205H795-MY344 / M103202L889-SK1 (antibody, human IgG1, kappa, CH with G236N/H268D/Q295L/Q311R/A330K/D413K against SG1 (EU numbering); also called MS1032LO06-MY344) heavy: QVTLKESGPVLVKPTETLTLTCTVSGIDLSHDDISWVRQAPGKGLEWVGIISYAGSTYYASWAKGRLTISKDTSKNQVVLTMTNMDPVDTATYYCARGVPAYSHGGDLWGQGTLVTVSSASTKGPSVFPLAPSSKSTSGGTAALGCLVKDYFPEPVTVSWNSGALTSGVHTFPAVLQSSGLYSLSSVVTVPSSSLGTQTYICNVNHKPSNTKVDKKVEPKSCDKTHTCPPCPAPELLNGPSVFLFPPKPKDTLMISRTPEVTCVVVDVSDEDPEVKFNWYVDGVEVHNAKTKPREELYNSTYRVVSVLTVLHRDWLNGKEYKCKVSNKALPKPIEKTISKAKGQPREPQVYTLPPSREEMTKNQVSLTCLVKGFYPSDIAVEWESNGQPENNYKTTPPVLDSDGSFFLYSKLTVKKSRWQQGNVFSCSVMHEALHNHYTQKSLSLSP light: DIVMTQSPATLSLSPGERATLSCTSSQSVYHANWLSWFQQKPGQPPKLLIYWASTLAYGVPSRFSGSGSGTDFTLTISSLQPEDAATYYCAGGYGGGRYAFGQGTKVEIKRTVAAPSVFIFPPSDEQLKSGTASVVCLLNNFYPREAKVQWKVDNALQSGNSQESVTEQDSKDSTYSLSSTLTLSKADYEKHKVYACEVTHQGLSSPVTKSFNRGEC
0.03	3.6	4.4	M103205H795-MY201 / M103202L889-SK1 (antibody, human IgG1, kappa, CH with G236N/H268D/A330K against SG1 (EU numbering); also called MS1032LO06-MY201) heavy: QVTLKESGPVLVKPTETLTLTCTVSGIDLSHDDISWVRQAPGKGLEWVGIISYAGSTYYASWAKGRLTISKDTSKNQVVLTMTNMDPVDTATYYCARGVPAYSHGGDLWGQGTLVTVSSASTKGPSVFPLAPSSKSTSGGTAALGCLVKDYFPEPVTVSWNSGALTSGVHTFPAVLQSSGLYSLSSVVTVPSSSLGTQTYICNVNHKPSNTKVDKKVEPKSCDKTHTCPPCPAPELLNGPSVFLFPPKPKDTLMISRTPEVTCVVVDVSDEDPEVKFNWYVDGVEVHNAKTKPREEQYNSTYRVVSVLTVLHQDWLNGKEYKCKVSNKALPKPIEKTISKAKGQPREPQVYTLPPSREEMTKNQVSLTCLVKGFYPSDIAVEWESNGQPENNYKTTPPVLDSDGSFFLYSKLTVDKSRWQQGNVFSCSVMHEALHNHYTQKSLSLSP light: DIVMTQSPATLSLSPGERATLSCTSSQSVYHANWLSWFQQKPGQPPKLLIYWASTLAYGVPSRFSGSGSGTDFTLTISSLQPEDAATYYCAGGYGGGRYAFGQGTKVEIKRTVAAPSVFIFPPSDEQLKSGTASVVCLLNNFYPREAKVQWKVDNALQSGNSQESVTEQDSKDSTYSLSSTLTLSKADYEKHKVYACEVTHQGLSSPVTKSFNRGEC
